Measured values as given in IntAct's records for PubMed 19933576.

B1: Prelamin-A/C (Homo sapiens), P02545 (parent)
chain: METPSQRRATRSGAQASSTPLSPTRITRLQEKEDLQELNDRLAVYIDRVRSLETENAGLRLRITESEEVVSREVSGIKAAYEAELGDARKTLDSVAKERARLQLELSKVREEFKELKARNTKKEGDLIAAQARLKDLEALLNSKEAALSTALSEKRTLEGELHDLRGQVAKLEAALGEAKKQLQDEMLRRVDAENRLQTMKEELDFQKNIYSEELRETKRRHETRLVEIDNGKQREFESRLADALQELRAQHEDQVEQYKKELEKTYSAKLDNARQSAERNSNLVGAAHEELQQSRIRIDSLSAQLSQLQKQLAAKEAKLRDLEDSLARERDTSRRLLAEKEREMAEMRARMQQQLDEYQELLDIKLALDMEIHAYRKLLEGEEERLRLSPSPTSQRSRGRASSHSSQTQGGGSVTKKRKLESTESRSSFSQHARTSGRVAVEEVDEEGKFVRLRNKSNEDQSMGNWQIKRQNGDDPLLTYRFPPKFTLKAGQVVTIWAAGAGATHSPPTDLVWKAQNTWGCGNSLRTALINSTGEEVAMRKLVRSVTVVEDDEDEDGDDLLHHHHGSHCSSSGDPAEYNLRSRTVLCGTCGQPADKASASGSGAQVGGPISSGSSASSVTVTRSYRSVGGSGGGSFGDNLVTRSYLLGNSSPRTQSPQNCSIM
partner: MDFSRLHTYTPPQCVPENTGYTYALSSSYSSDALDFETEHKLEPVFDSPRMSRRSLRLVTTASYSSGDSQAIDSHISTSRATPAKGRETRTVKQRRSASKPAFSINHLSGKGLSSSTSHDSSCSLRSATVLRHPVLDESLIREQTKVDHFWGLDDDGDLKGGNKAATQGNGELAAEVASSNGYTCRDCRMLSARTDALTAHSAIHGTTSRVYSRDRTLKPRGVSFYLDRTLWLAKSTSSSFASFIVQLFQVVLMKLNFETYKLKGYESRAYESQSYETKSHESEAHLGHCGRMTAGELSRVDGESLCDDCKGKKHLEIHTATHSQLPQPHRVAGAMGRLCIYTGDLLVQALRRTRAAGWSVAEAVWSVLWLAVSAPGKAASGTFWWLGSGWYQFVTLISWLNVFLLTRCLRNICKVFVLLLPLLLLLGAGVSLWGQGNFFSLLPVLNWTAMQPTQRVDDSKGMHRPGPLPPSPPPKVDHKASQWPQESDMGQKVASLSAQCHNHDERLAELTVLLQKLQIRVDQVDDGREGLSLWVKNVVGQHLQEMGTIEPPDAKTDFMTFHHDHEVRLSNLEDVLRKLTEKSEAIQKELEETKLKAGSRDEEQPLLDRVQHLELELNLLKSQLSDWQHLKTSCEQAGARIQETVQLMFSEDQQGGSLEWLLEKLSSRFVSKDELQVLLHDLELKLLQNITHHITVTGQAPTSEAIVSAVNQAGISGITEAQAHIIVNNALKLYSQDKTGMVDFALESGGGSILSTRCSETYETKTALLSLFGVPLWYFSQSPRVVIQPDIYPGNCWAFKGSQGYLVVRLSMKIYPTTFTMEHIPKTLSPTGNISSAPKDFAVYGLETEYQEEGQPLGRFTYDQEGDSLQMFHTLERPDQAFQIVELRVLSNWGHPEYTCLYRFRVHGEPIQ

Variants of: B1
Conditions: with sun1_mouse Sun1, Q9D666

| Variant | effect of a mutation on the interaction |
| --- | --- |
| L530P | disrupting interaction |
| R527P | disrupting interaction |
